Measurements taken from patent US20230192831A1 (published 2023).

Biological target: T1, human GREM1 (hGREM1-His; SEQ ID NO: 595) (human, UniProt O60565 25-184)
T1 construct: also called biotin-hGREM1-His; recombinant human GREM1 protein
T1 sequence: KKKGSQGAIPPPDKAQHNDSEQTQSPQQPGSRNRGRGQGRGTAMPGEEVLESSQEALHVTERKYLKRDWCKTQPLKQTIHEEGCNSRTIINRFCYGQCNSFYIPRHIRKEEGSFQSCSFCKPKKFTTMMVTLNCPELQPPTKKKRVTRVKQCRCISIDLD
Assay: competition ELISA, 100 pM biotin-hGREM1-His on plate-coated hBMP4
Procedure: Data were analyzed using a sigmoidal dose-response model within Prism™ software. […] The absorbance values of the wells containing the highest concentration for each antibody were used to determine the percent maximum blocking.

B1: H4H6243P (antibody, human IgG4, V domains shown)
VH: QVQLVQSGAEVKKPGASVKVSCKVSGYTLTELSMHWVRQAPGKGLEWMGGFDPEDGETIYAQKFQDRVTMTEDTSTDTAYMELSSLRSEDTAVYYCVTDDYEILPEYPYNMDVWGQGTTVTVSS
VL: DIQMTQSPSSLSASVGDRVTITCRASQSISTYLNWYQQKPGKAPKLLIYAASSLQSGVPSRFSGSGSGTDFTLTIRSLQPEDFATYYCQQSHITPFTFGPGTKVDIK
notes: H4H = human IgG4 Fc
IC50: 7.2 pM
